The values that follow come from the DeepSol protein solubility set.

The nature of the data set: soluble on expression in E. coli; label from the status in PepcDB or PDB records.
For “MIDHTHLRLFQFCDSQFPTGAFSHSFGLETYIQRNIIHDDHTFIAWLKMFLQEQLTYSDGLAMRLVYDALENDDTQKVLHIDKLMFVQNLPKETRVGAKQMGTRMVKLALELYNSPWIAWYHQQMQDKKAKLNPAICFTMLGHHLGVDIETIIDYYLYQNVSSLTQNAVRAIPLGQTAGQKIVTHMIPYIEGTRKQIFELKEADFGMTAPGLELNQMAHENVNVRIFISLEHHHHHH”, the “soluble on expression in E. coli” value is “not soluble”.
Regarding “MGSDKIHHHHHHMAFVGFKKSGKTTTIEKVARVLKEKGYRVAIVKSMHSEFDRPGTDTWKFSRIADSVLVHAKDTDALLFKAKDINALFSMISSDVVLIEGFKSIKHVPKVICARSEDEVRELNDGLAIAVSGVIASQGVKEVDGLPVIDGTREPEKLAELVLKRGFMLPNIDCGLCGFNCEQMAKLIVKGEKSVNDCVVLSSRPKVIIKIDGQPLYLKDWVQELVEKTIKGMLSAMKGYREGKRIEIIING”, the “soluble on expression in E. coli” value is “not soluble”.
For QILSIDPLDISQNLAAVNKSLSDALQHLAQSDTYLSAI the value was “soluble”; for “GPGSMDVARTMRATAGGKAFAVVAAEQTAGRGTGGRTWTSPKGNLYMTVGVPQLGQPPCLKEELVPVLPLICGLACRRAVLEVLHLDGALAKASVAADAAKAVATKWPNDIIYNHKKIGGTLIESDGDYLIIGIGMNIAVAPQMTDAGREATMINTIAEDFGVKSCPPRDLANAIWCHLFDICSSPEWTRELVIESFDKVMDKSLKLHKRLPGGRDPEELTAVSLNSWGHLKVRHADGTVEDLSAEYLF”, “not soluble”; for “MAHHHHHHMRARRWWHGPYSLLYTLNLLLSLSLSPSHAGGGKEVSTTHTYTHPSTMQRGANVRPIKLAEKVFSTKTVCPTAASQLYVAHGLLGNSGNWATASRHLVEHSALKDKLRRAIAVDMRNHGSSTHSSDHTNAALASDLEALVLREQQELDRAFCDPSSCTTRNAILIGHSMGGLTVMGALLRRANEHHLLTSLVDHCDDVGSTSSYGAWPAEHRRQCIAGMRAVNEEFGFASSQPIAEVLFNNCRASSSLSTGSGNASRIPLLGRVAGAIIVDVTPTMRLGEQRSCADNVKETLERMTQVRLDEIHSYKDATAELIRVGMADEEMRAFVATNIALDPKDKSKPAQWKCNLPVLAGDYGSFQPSITSWFTSSATTMGPASSAAAPRLCTLPVMFVFGGESPYNEPDHRQHISRFFSNATQVEVAGAGHFVHYEKPKEFTDAVAPFIASLISQP”, “not soluble”.
Under “MSDFLKDCFQKIGWEKDHVSFGDLPLFLKAMAYRFPFENRAVLAKENYKITKEELWRRLLKDQHGGLCYDLNGFLYFVLREAGFHVKLIRGTVYAGDQEGWALEGTHAAVWLSAENGDYLVDIGFGINLALQPIPLSGETVQSPVGSFRIKKEETEKGSYVLLMDKGEGWQIGYAFTLEESDLGDLDNMKDIIHSHEKSPFNKSLLASKLTPSGRMVMSERHFTIYENGGNIQKSDIGPSGFEEKLNTH” stands “not soluble”; under “MAKVRETYVCSACGANTPQWRGQCPTCKAWNTLDAVTVARETRSGVRRQGAPDSVRPRPLRDVSDEGGSPFGTGLEALDRVLGSGLVPGAAILFGGEPGIGKSTLLLQVAGAVAASGRDVLYLSGEESLTQLKGRAERLGVLHERLLAVATSRVEDVFSVLESGTPPALLVLDSVQTLTSDLAEGLPGNVSQVRAVATEVVDRCKRAGTAVLLVGHVTKDGNLAGPRLLEHMVDTVVSLEGDRRQMFRLLRVLKNRFGPNQELLVFQMAQRGLEVVEDPSTFFLGARDPALSGTAVVMAVDGQRPFAVEVQALVTRSYLAIPRRTGLGFDVNRLHLLLAVLEKRLRLNFGQVDIYAKIGGGMRLQDPGMDLALVAAVLSSFYDVALPERAVLWGEVDLNGQVRPVAAHDIRLGQAARLGYGPVLHPGEGRGAVPTVVELQARLFGKSGAPRHNPSELEHHHHHH”, “not soluble”; under “MAHHHHHHMAVLVKNYEASLVDMAVQDFIKLGIDGVYTTMKTVVSFEYIFNFTSHMRNLHKYSTNFLELQINDHNKECVTNILQNLTMENIRKSSSASIKAGFEFLNALNDDIKKKHFSENVNYMVMVTITWDIHGNSGVSPNEPFSILCYIKCLPKHGSHVQIDIMCGERKTPNIKYSNVFDVRNKMLKLKSEDSHEVVLYNEKEEITEGLTCNFFCFFNDTLYTANDELVLKGTMREQIIHICEEEGVKLKKEAISIRDVGRFEFCFICSTTRNIIPVKKIILCSENKAEFEKDVHHPVLVKLQQKLREAVEKKKEKYEAYVSAALGV”, “not soluble”.
For “MGSDKIHHHHHHMAFWQSKTLTEMTSQEWESLCDGCGKCCLNKLIDDETEELYYTNAACLLLDHQTTSCQHYSDRFRYVPQCTVITAQNVHELTWLPDSCAYRRLAAGRALPSWHPLLTGSKDAMHLAGMSIQGKVVDERRVKDIEDHIVLWPLKDLD”, the “soluble on expression in E. coli” value is listed as “not soluble”.
Under “TAKQRDDAIENAEAAKVESEQVAKKATEGELHLAEVLEQANLNSIELKSVSQALDEQSSQLDEQVNALNVNSESQASAAEQMSQQVHHMATGIEESSKFVEELREKSEDVHQQAEKSSELLEDSTQAIGQIITSHEEIMKVADLITSVAEANQLAGFKCGNRSGASRRSGQRFCCGCRASTRAICEE” stands “not soluble”; under “MASGDFRLCDVVLDDSIGRSTPDVEHERAVAIFDLIEENTFEPAGHDGGPYRLHISLVDAKLVFAIKTEDDKDVSTHILSLTPFRRIIKDYFLICESYYEAIRSSTPSQIEAIDMGRRGIHNDGSQTLMDRLSGKIKVDFDTARRLFTLVCVLYWRG”, “not soluble”; under “AHHHHHHGSENPYEIVGVVAREILDSRGNPTVEVDVYTHVGMGRAAVPSGASTGTHEALELRDGGKRYHGKGVRRAVENVNKIIAPELIGMDVRWQREIDALLLELDGTENKSNVGANAILAVSLAVAKAAANSLELPLYQYLGGVNAYVLPVPLSNVINGGVHAGNDLDFQEFMIMPIGADSFREAIRWVSETYHVLKKVIMEKYGKNAVNVGDEGGFAPPMKEVTEPLDVLIKAIEEAGYKPGDEIALALDVASSELFNEETGKYVVGGKEYDRGELLELYKDLTSTYPIVSIEDPFHEEDWEGFVMITKELGHKVQIVGDDLFVTNPKRLRKGIELGAANALLLKVNQIGTLSEAMDAAFTAFRAGYGVIVSHRSGETEDATIADLAVALNAGQIKTGAPARSDRNAKYNQLIRIEEELEGVAVYAGKRFRKVFF”, “soluble”.
For “MTQGAVKTTGKRSRAVSAKKKAILSAALDTFSQFGFHGTRLEQIAELAGVSKTNLLYYFPSKEALYIAVLRQILDIWLAPLKAFREDFAPLAAIKEYIRLKLEVSRDYPQASRLFCMEMLAGAPLLMDELTGDLKALIDEKSALIAGWVKSGKLAPIDPQHLIFMIWASTQHYADFAPQVEAVTGATLRDEVFFNQTVENVQRIIIEGIRPR”, the “soluble on expression in E. coli” value was “soluble”.
Under “SNAMIRKYRYGAPFDTEALTEKIETAEEAFPYGEISQKEGFAFTYIMDEDDIVYGLGESNRGINKRGYCYISNCTDDPIHTEDKRSLYGAHNFIIVSGKTTFGLFFDYPSKLTFDIGYTRMDTLKVSCENADLDIYVIEGENAYDIVKQFRRVIGRSYIPPKFAFGFGQSRWGYTTKEDFRAVAKGYRENHIPIDMIYMDIDYMQDFKDFTVNEKNFPDFPEFVKEMKDQELRLIPIIDAGVKVEKGYEVYEEGVKNNYFCKREDGSDFVAAVWPGDTHFPDMLNPEARKWFGDKYRFLIDQGIEGFWNDMNEPAIFYSSEGLAEAKEFAGEFAKDTEGKIHPWAMQAKMKDIVNSPEDYKRFYHNVNGKKIRHDKVHNLFGYNMTRAAGEAFERIDPEKRFLMFSRSSYIGMHRYGGIWMGDNKSWWSHILLNLKMLPSLNMCGFMYTGADLGGFGDDTTRDLLLRFLALGVFTPLMRDHAAEGTREQECYQFENIEDFRSVINARYRLVPYLYSEYMKAALNDDMYFKPLGFVYPDDKMAIRVEDQLMLGNEIMIAPVYEQNARGRYVYLPEEMKFIKFMPDGSISEEVLEKGVHYVDVALNEVPLFIRSGKCIPVAEAAECVKDIDTENMQLIGYEGSSYTLYEDDGIHKDYDKKENYRVLTK” stands “soluble”; under “TNTEAFCTSCHEMQSNVFEELTRTVHYTNRSGVRAGCPDCHVPHEWTDKIARKMQASKEVWGHLFGTIDTRRKFLDNRLRLAEHEWARLKANDSLECRNCHSEVAMDFTRQTDRAAQIHTQYLIQTEGYTCIDCHKGIAHEL”, “not soluble”.
